B1: Lysozyme C, P61626 (parent)
chain: MKALIVLGLVLLSVTVQGKVFERCELARTLKRLGMDGYRGISLANWMCLAKWESGYNTRATNYNAGDRSTDYGIFQINSRYWCNDGKTPGAVNACHLSCSALLQDNIADAVACAKRVVRDPQGIRAWVAWRNRCQNRDVRQYVQGCGV

Variants of: B1
Conditions: Homo sapiens, pH 2.7, Thermal, DSC, glycine 0.05 M, reversible: yes, structure 1LZ1, whole UniProt chain shown

I74V
ddG of mutation (higher = less stable) (64.9 °C): 1.2 kcal/mol
heat capacity change of unfolding (64.9 °C): 1.34 kcal/mol/K
Tm: 61.3 °C
change of melting temperature, mutant - wild type (higher = more stable): -3.6 °C
heat capacity change of unfolding: 1.34 kcal/mol/K
unfolding enthalpy (calorimetric): 114 kcal/mol
unfolding enthalpy (van 't Hoff): 117 kcal/mol

I124V
ddG of mutation (higher = less stable) (64.9 °C): 0.72 kcal/mol
heat capacity change of unfolding (64.9 °C): 1.41 kcal/mol/K
Tm: 62.7 °C
change of melting temperature, mutant - wild type (higher = more stable): -2.2 °C
heat capacity change of unfolding: 1.41 kcal/mol/K
unfolding enthalpy (calorimetric): 109 kcal/mol
unfolding enthalpy (van 't Hoff): 114 kcal/mol

I77V
Tm: 61.5 °C
change of melting temperature, mutant - wild type (higher = more stable): -3.4 °C
heat capacity change of unfolding: 1.2 kcal/mol/K
unfolding enthalpy (calorimetric): 110 kcal/mol
unfolding enthalpy (van 't Hoff): 117 kcal/mol

I107V
ddG of mutation (higher = less stable) (64.9 °C): 0.48 kcal/mol
heat capacity change of unfolding (64.9 °C): 1.91 kcal/mol/K
Tm: 63.5 °C
change of melting temperature, mutant - wild type (higher = more stable): -1.4 °C
heat capacity change of unfolding: 1.91 kcal/mol/K
unfolding enthalpy (calorimetric): 116 kcal/mol
unfolding enthalpy (van 't Hoff): 122 kcal/mol

I41V
ddG of mutation (higher = less stable) (64.9 °C): 0.36 kcal/mol
heat capacity change of unfolding (64.9 °C): 1.39 kcal/mol/K
Tm: 63.8 °C
change of melting temperature, mutant - wild type (higher = more stable): -1.1 °C
heat capacity change of unfolding: 1.39 kcal/mol/K
unfolding enthalpy (calorimetric): 112 kcal/mol
unfolding enthalpy (van 't Hoff): 120 kcal/mol

— FireProtDB (doi:10.1006/jmbi.1995.0599)
